The labels stand for the following.
B1: Secretogranin III (SgIII) (natural protein)
chain: not shown
notes: source: HEK293S cells, BacMam baculovirus; purified
B2: secretogranin II (SgII), His-mCherry tag removed (natural protein, mouse, UniProt Q03517 31-617, looked up)
chain: QRNQLLQKEPDLRLENVQKFPSPEMIRALEYIEKLRQQAHREESSPDYNPYQGVSVPLQLKENGEESHLAESSRDALSEDEWMRIILEALRQAENEPPSAPKENKPYALNLEKNFPVDTPDDYETQQWPERKLKHMRFPLMYEENSRENPFKRTNEIVEEQYTPQSLATLESVFQELGKLTGPSNQKRERVDEEQKLYTDDEDDVYKTNNIAYEDVVGGEDWSPIEEKIETQTQEEVRDSKENTEKNEQINEEMKRSGQLGLPDEENRRESKDQLSEDASKVITYLRRLVNAVGSGRSQSGPNGDRAARLLQKPLDSQSIYQLIEISRNLQIPPEDLIEMLKAGEKPNGLVEPEQDLELAVDLDDIPEADLDRPDMFQSKMLSKGGYPKAPGRGMVEALPDGLSVEDILNVLGMENVVNQKSPYFPNQYSQDKALMRLPYGPGKSRANQIPKVAWIPDVESRQAPYENLNDQELGEYLARMLVKYPELLNTNQLKRVPSPVSSEDDLQEEEQLEQAIKEHLGPGSSQEMERLAKVSKRIPVGSLKNEDTPNRQYLDEDMLLKVLEYLNQEQAEQGREHLAKRAMENM
notes: signal peptide in the construct; residues 1-617 (total of 617 amino acids; 1-30 is the signal peptide); Non-tagged proteins were made by cutting off His-mCherry with PreScission protease; The SPR methods say only 'Purified SgII', without the state of the tag; also called CgC; SgII_(1–617); source: HEK293S cells, BacMam baculovirus; purified (Ni-NTA, PreScission protease, Superose 6 Increase); not …
B3: mCherry-tagged SgII (SgII-mCherry) (natural protein, mouse, UniProt Q03517 31-617, looked up)
chain: B2 chain
notes: signal peptide in the construct; residues 1-617 (total of 617 amino acids; 1-30 is the signal peptide); also called SgII_(1–617) tagged with mCherry; source: HEK293S cells, BacMam baculovirus; purified (Ni-NTA, Superose 6 Increase); not shown: mCherry, C-terminal, kept

Data set [1] addresses B2. In words: SPR; Biacore T200, 25 °C; purified SgII immobilised on a CM5 chip by amine coupling; SgIII injected as analyte, 2 to 1000 nM in twofold dilutions; 25 mM Tris pH 7.5, 150 mM NaCl, 0.05% P20; dissociation constant calculated in affinity mode. To be noted: both partners purified.
Data set [2] concerns the molecule itself. In words: SEC; Superose 6 Increase 10/300 GL; 25 mM Tris pH 7.5, 500 mM NaCl; self-association.

The values that follow come from article PMC9507364, “Tuning the Size of Large Dense‐Core Vesicles and Quantal Neurotransmitter Release via Secretogranin II Liquid–Liquid Phase Separation” (Advanced Science, 2022).

Usually Kd stands for the concentration at which binding is half-saturated.

For B1, the Kd in data set [1] was 21.4 nM.

With B2, in data set [2], the binding result is recorded as “binds”.

For B3, the binding result in data set [2] is recorded as “binds”.
